The results in this text go back to patent US20180094062A1 (Hoffmann-La Roche, published 2018).

For test [1], the target named is T1, HER3 ECD-HRG complex (Heregulin-activated Her-3 ECD) (human, UniProt P21860 20-643).
T1 construct: receptor-ligand complex made by preincubating HER3 ECD with a five-fold molar excess of Heregulin; also called Heregulin/Her-3 ECD; Heregulin-complexed Her-3 ECD
Briefly: SPR Biacore 3000, antibody captured, Biacore two-state model, ka1, 25 C; ka1, first step of the two-state fit. As for the experimental part:
A CM5 series sensor was mounted into the system and was normalized in HBS-ET buffer (10 mM HEPES pH 7.4, 150 mM NaCl, 3 mM EDTA, 0.005% w/v Tween 20) according to the manufacturer's instructions. The sample buffer was the system buffer supplemented with 1 mg/ml CMD (Carboxymethyldextran). The system operated at 25° C. 10000 RU RAM-Fey (relative units of Fey-fragment Rabbit Anti-Mouse IgG/Jackson Laboratories) were immobilized according to the manufacturer's instructions using EDC/NHS chemistry on all flow cells. The sensor was deactivated using 1M ethanolamine.
(Surface plasmon resonance follows binding to a sensor surface in real time, without labels.)

The target of test [2] is T2, HER2 ECD peptide hairpin, overlapping immobilized 15-mer peptides (human, UniProt P04626 269-287, limits assumed).
T2 construct: domain: peptide hairpin (β-hairpin); CelluSpots 15-mer library; cysteines replaced by serines; also called hairpin motive in the HER2 ECD
T2 peptide (looked up): PALVTYNTDTFESMPNPEG
Briefly: CelluSpots array of overlapping 15-mer peptides.

In test [3] the target is T3, HER1 (EGFR) ECD peptide hairpin, overlapping immobilized 15-mer peptides (human, UniProt P00533 265-283, limits assumed).
T3 construct: domain: peptide hairpin (β-hairpin); CelluSpots 15-mer library; cysteines replaced by serines; also called hairpin motive in EGFR
T3 peptide (looked up): PPLMLYNPTTYQMDVNPEG
Briefly: CelluSpots array of overlapping 15-mer peptides.

Test [4] has as its target T4, HER4 ECD peptide hairpin (β-hairpin of HER4), overlapping immobilized 15-mer peptides (human).
T4 construct: CelluSpots library of 15-mers as for HER3; cysteines replaced by serines; also called HER4 β-hairpin
T4 peptide: PQTFVYNPTTFQLEHNFNA
In words: CelluSpots array of overlapping 15-mer peptides of the HER family hairpins, chemiluminescence.

B1: anti-HER3 antibody M-08-11 (antibody, V domains shown)
VH: QAYLQQSGAELMRPGASVRMSCQASGYTFTSYTIHWLKQTPRQGLEWIGAIYPRNGDFSYNQKFKDKASLTVDTSSSTAYMHLSSLTSEDSAVYFCARTINYGDWFAYWGQGTLVTVSA
VL: DIQMIQSPASLFVSEGETVIITCRASENIYSNLAWYHQKKGKSPQVLVYAAIKLADGVPLRFSGSGSGTQFSLKINSLQSEDFGSYYCQHFWGPPYTFGSGTNLEIK
notes: mouse monoclonal antibody from hybridoma, tested as hybridoma supernatant or as antibody; also called M-011
As a reminder, the kon is the second-order rate constant of association. A low value points to slow association. As for B1, in test [1], the kon was 45800 M⁻¹ s⁻¹. Also, the binding result in test [2] was “no binding (tested: 1 µg/mL)”; in test [3] it was “no binding (tested: 1 µg/mL)”; in test [4], “no binding”.
